Source: paper PMC8152229, “Structural and Functional Peculiarities of Cytoplasmic Tropomyosin Isoforms, the Products of TPM1 and TPM4 Genes” (International Journal of Molecular Sciences, 2021)

Target: F-actin from rabbit skeletal muscle, stabilised by phalloidin (rabbit, UniProt P68135 1-377)
Assay: co-sedimentation; 10 uM phalloidin-stabilized F-actin mixed with increasing Tpm (0 to 5.5-6 uM; up to almost 40 uM for Tpm1.12); 30 mM Hepes-Na pH 7.3, 200 mM NaCl; 40 min at 25 °C; 100,000 x g for 40 min; SDS-PAGE of pellet and supernatant; K50% = Tpm concentration at which actin is half-saturated
Conditions: both partners purified

B1: Tropomyosin isoform Tpm1.7 with Ala-Ser N-terminal extension (natural protein)
chain: not shown
notes: Ala-Ser N-terminal extension that mimics natural N-terminal acetylation; cytoplasmic HMW isoform Tpm1.7 of the TPM1 gene (~284 residues), exons 1a2b, 6a, 9d; Alpha-helical coiled-coil dimer; source: E. coli C41(DE3), purified (anion exchange, HiTrap QHP)
B1 was tested. Which K50% did it give?
The K50% was 0.4 µM.

B2: Tropomyosin isoform Tpm1.12 (natural protein)
chain: not shown
notes: cytoplasmic LMW isoform Tpm1.12 of the TPM1 gene (~247 residues; exon 9c three residues shorter than 9d), exons 1b, 9c; has Cys-154; no N-terminal extension; source: E. coli C41(DE3), purified (anion exchange, HiTrap QHP); reduced with DTT before experiments
B2 was tested. Which K50% did it give?
The K50% was 14.9 µM.

B3: Tropomyosin isoform Tpm4.2 (natural protein)
chain: not shown
notes: cytoplasmic LMW isoform Tpm4.2 of the TPM4 gene (~247 residues), exons 1b, 9d; an N-terminal extension is stated only for the HMW isoforms; source: E. coli C41(DE3), purified (anion exchange, HiTrap QHP); reduced with DTT before experiments
With B3 as the binder, how does the K50% read?
Its K50% is 1.07 µM.
